Data set [1] addresses T1, His162 (UniProt position 284, SEQLDHGVLLV). Kind of data set: NMR. As to conditions: Cys25 covalently modified by K11777; cited from earlier work.
The target in data set [2] is T2, Cys25 (UniProt position 147, GQCGSCWAFSA). Kind of data set: kinetics. The conditions noted are these: 25 °C; 0.1 (constant); free enzyme (kcat/Km profile).
The target in data set [3] is T1, His162. Kind of data set: kinetics. As to conditions: free enzyme (kcat/Km profile).
Data set [4] deals with T2, Cys25. Kind of data set: chemical modification. The conditions noted are these: 25 °C (general statement for all assays); ligand-free enzyme.
Data set [5] deals with Cys25 (UniProt position 158, GSCGSCWAFSA). Kind of data set: chemical modification. The conditions noted are these: free enzyme; cited from earlier work.
The target of another data set is His159 (UniProt position 292, GNKVDHAVAAV). Kind of data set: chemical modification. As to conditions: free enzyme; cited from earlier work.
In data set [6] the test system is Cc1cc(=O)oc2cc(NC(=O)[C@H](CCCNC(=N)N)NC(=O)[C@H](CCCNC(=N)N)NC(=O)OCc3ccccc3)ccc12. Kind of data set: purified protein. As to conditions: pH 7.5, 25 °C, 2% DMSO, 5 mM DTT, 1 mM CHAPS, 1 mM EDTA.
For data set [7], the system named is Cc1cc(=O)oc2cc(NC(=O)[C@H](C)NC(=O)[C@H](CCCNC(=N)N)NC(=O)OCc3ccccc3)ccc12. Kind of data set: purified protein. The conditions noted are these: pH 7.5, 25 °C, 2% DMSO, 5 mM DTT, 1 mM CHAPS, 1 mM EDTA.
Data set [8] relates to Cc1cc(=O)oc2cc(NC(=O)[C@H](CCCNC(=N)N)NC(=O)[C@H](Cc3ccccc3)NC(=O)OCc3ccccc3)ccc12. Kind of data set: purified protein. As to conditions: pH 7.5, 25 °C, 2% DMSO, 5 mM DTT, 1 mM CHAPS, 1 mM EDTA.
Another data set concerns Cys. Kind of data set: kinetics. As to conditions: free enzyme; cited from earlier work.
For the next data set, the system named is His. Kind of data set: kinetics. The conditions noted are these: free enzyme; cited from earlier work.

Values joined by “and” are separate entries in the source; they are usually repeats but may differ in a detail not shown here. Identical values can stand only once.

The values that follow come from publication PMC10569748.

For the substance “Cruzain covalently complexed with K11777 (Trypanosoma cruzi)”, the pKa with His162 [1] is given as 5.2–5.3.

For “Cruzain (cruzipain catalytic domain) (Trypanosoma cruzi)”, the pKa is 9.6 ± 0.1 with Cys25 [2]; 6.2 ± 0.4 and 6.0 ± 0.1 with His162 [3] (25 °C, 0.1 (constant), sticky substrate); 6.2 ± 0.1 with His162 [3] (25 °C); 5.9 ± 0.1 in the data set with His162 [3] (40 °C); 9.76 ± 0.04 in the data set with Cys25 [4].

Papain (Carica papaya): the results for the pKa in the data set with Cys25 [5] and with His159 were 4.0 and 8.4, respectively.

For the substance cruzain (Trypanosoma cruzi), in [6], the Km is 3.7 ± 0.4 µM, the kcat amounted to 7.2 ± 0.1 s⁻¹ and the kcat/Km amounted to 1.9e+06 ± 200000 M⁻¹ s⁻¹. Also, in data set [7], the Km is 38 ± 2 µM, the kcat worked out at 0.89 ± 0.06 s⁻¹ and the kcat/Km was 23000 ± 3000 M⁻¹ s⁻¹. Moreover, in [8], the Km worked out at 0.62 ± 0.02 µM, the kcat was 17 ± 2 s⁻¹ and the kcat/Km was determined as 2.7e+07 ± 4e+06 M⁻¹ s⁻¹.

On to “Cathepsin C (dipeptidyl peptidase I) (Homo sapiens)”, for which the pKa with Cys is reported as 4.3; in the data set on His it was 6.5.

Usually pKa stands for the pH at which an ionisable group is half protonated. Usually Km stands for the substrate concentration at which the rate is half of its maximum. As usually defined, the kcat is the number of substrate molecules converted per active site and unit of time at saturation. The kcat/Km is the second-order rate constant that governs catalysis at low substrate concentration.
